The values that follow come from PMC8251270 (Journal of Leukocyte Biology, 2021).

The target of assay [1] is recombinant receptor‐binding motif (RBM) of SARS‐CoV‐2 spike (S) protein, residue 437–508 (SARS-CoV-2, UniProt P0DTC2). Kind of assay: SPR. As to conditions: both partners purified.
Assay [2] deals with tetranectin (TN) of murine lung tissue (Mus musculus (lung tissue lysate), UniProt P43025). Description: Western blot. The conditions noted are these: one partner purified. Background: A western blot detects proteins with antibodies after separation by electrophoresis.
tetranectin (TN) of murine lung tissue, sequence (P43025 22-202): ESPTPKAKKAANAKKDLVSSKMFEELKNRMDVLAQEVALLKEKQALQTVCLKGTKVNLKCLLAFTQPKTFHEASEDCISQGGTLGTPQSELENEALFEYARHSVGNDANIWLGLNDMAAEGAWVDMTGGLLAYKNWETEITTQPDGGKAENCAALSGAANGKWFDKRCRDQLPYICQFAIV

B1: mAb8 (antibody, V domains shown)
VH: DVKLVESGGGLVKLGGSLKLSCAASGFTFSTDYMSWVRQSPEKRLELVAAINSNGGTTYYPDTVKGRFIISRDNAKNTLYLQMSSLRSEDTALYYCARQVKNGLDYWGQGTSVTVSS
VL: DIQMTQTTSSLSASLGDRVTISCRASQDISNYLNWYQQKPDGTVKLLIYKTSRLHSGVPSRFRGSGSGTDYSLTISNLEEEDVATYFCQQGNTLPPTFGGGTKLEIK
Take B1: in assay [1], the Kd (as a rule, the equilibrium constant for the complex coming apart) was 17.4 nM. Also, in assay [2], the binding result is “binds”.

B2: mAb2 (antibody, V domains shown)
VH: DVKLVESGGGLVNLGGSLKLSCAASGFTFSSDYMSWVRQIPEKRLELVAAINSNGGTTYYPDTVKGRFTISRDNAKNTLYLQMSSLKSEDTALYYCARQGKNGMDYWGQGTSVTVSS
VL: DIQMTQTTSSLSASLGDRVTISCRASQDISNHLNWYQQRPDGTVKLLIYYTSRLHSGVPSRFSGSGSGTDYSFTITNLDQEDIATYFCQQGKTLPPTFGGGTKLEIK
In the case of B2, the Kd in assay [1] was found to be 62.8 nM. Further, the binding result in assay [2] was “binds”.
